Data taken from publication PMC10084705.

Target: SARS-CoV-2 main protease M^pro-C145A (SARS-CoV-2)
Assay: cryo-EM structure

**Q.** Which stoichiometry N does the source give for “SARS-CoV-2 main protease M^pro-C145A (enzyme)” here?
**A.** The stoichiometry N was 2.
